These results are taken from PMC11879086, “Identification and characterization of a human MORC2 DNA binding region that is required for gene silencing” (Nucleic Acids Research, 2024).

What is called Kd is the constant that tells how readily two partners part at equilibrium.

Data set [1] concerns the target T1, MORC2 alanine mutant (Homo sapiens, UniProt Q9Y6X9 1-1032, K704A;R707A;K713A;K716A;K721A;K722A;R754A;R755A;K756A;R758A;K760A;R761A).
T1 sequence: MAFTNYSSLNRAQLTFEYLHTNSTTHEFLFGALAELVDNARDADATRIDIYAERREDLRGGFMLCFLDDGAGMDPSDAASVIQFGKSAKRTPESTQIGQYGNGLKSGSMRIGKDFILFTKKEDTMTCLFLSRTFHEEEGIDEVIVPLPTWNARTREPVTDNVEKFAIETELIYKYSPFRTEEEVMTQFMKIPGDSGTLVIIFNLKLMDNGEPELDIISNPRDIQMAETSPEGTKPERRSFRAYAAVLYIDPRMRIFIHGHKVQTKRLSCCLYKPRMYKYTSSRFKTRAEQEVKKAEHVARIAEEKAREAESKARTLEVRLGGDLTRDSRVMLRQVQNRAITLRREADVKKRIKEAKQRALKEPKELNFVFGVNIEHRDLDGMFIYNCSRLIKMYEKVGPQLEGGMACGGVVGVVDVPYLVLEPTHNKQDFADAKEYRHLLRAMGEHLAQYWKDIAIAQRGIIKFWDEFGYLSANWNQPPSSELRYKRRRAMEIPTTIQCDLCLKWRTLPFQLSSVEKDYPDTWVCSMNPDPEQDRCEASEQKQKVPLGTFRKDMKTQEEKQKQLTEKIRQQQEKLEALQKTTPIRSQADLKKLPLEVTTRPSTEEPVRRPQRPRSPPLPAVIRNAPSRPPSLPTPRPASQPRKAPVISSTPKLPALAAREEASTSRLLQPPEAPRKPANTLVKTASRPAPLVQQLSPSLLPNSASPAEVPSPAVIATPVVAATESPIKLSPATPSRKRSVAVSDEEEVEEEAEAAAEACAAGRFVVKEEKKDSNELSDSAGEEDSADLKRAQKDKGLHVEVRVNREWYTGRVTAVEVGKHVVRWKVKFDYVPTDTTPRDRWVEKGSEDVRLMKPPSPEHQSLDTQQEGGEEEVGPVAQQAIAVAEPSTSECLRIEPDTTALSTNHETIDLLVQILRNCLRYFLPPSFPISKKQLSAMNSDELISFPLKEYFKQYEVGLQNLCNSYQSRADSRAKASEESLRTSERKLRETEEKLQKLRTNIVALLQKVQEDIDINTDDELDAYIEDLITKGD
Description: fluorescence anisotropy; apo; FA/EMSA: 50 mM NaCl, 3 mM MgCl2, 20 mM Na-HEPES pH 7.4, 1 mM TCEP, 10% glycerol, 0.025 mM ZnCl2, 50 ug/ml BSA, room temperature; 1 nM nucleic acid (FA) or 20 nM DNA (EMSA). To be noted: protein: recombinant; tags: tag removed by TEV; chain copies: 2; label: 5'-6-FAM; blunt. (In general: Polarisation of emitted light reports the rotation of a fluorescent probe.)

Data set [2] concerns the target T2, MORC2 1-603 (Homo sapiens, UniProt Q9Y6X9 1-603).
T2 sequence: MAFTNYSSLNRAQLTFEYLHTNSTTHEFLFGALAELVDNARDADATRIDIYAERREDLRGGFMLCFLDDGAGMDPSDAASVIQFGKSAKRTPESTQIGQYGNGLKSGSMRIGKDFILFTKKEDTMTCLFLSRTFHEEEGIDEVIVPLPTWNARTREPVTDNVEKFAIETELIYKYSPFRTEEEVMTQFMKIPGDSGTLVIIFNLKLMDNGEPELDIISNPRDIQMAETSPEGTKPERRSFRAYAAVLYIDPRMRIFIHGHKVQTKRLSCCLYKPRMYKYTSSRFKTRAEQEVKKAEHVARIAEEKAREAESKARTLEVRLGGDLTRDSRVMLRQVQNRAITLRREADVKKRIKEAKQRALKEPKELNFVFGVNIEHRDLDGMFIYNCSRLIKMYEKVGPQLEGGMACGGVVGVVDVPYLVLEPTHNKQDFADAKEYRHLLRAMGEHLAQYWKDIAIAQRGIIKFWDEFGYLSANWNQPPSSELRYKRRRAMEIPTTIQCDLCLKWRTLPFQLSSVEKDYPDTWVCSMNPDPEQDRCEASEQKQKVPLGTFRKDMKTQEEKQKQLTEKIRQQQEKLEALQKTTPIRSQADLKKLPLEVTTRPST
The data set is described as above. To be noted: protein: recombinant; tags: tag removed by TEV; label: 5'-6-FAM; blunt.

B1: Random 35mer dsDNA (dsDNA)
DNA 1: ATAGGGTCCATCAGAATTCGGATGAACTCGGTGTG
DNA 2: CACACCGAGTTCATCCGAATTCTGATGGACCCTAT
B1: the Kd is 350 ± 60 nM in data set [1] and 446 ± 119 nM in data set [2].
